The target of test [1] is T1, recombinant human AXL extracellular domain, C-terminally His8-tagged (rhAXL-ECD) (human, UniProt P30530 26-451).
T1 construct: Made in CHO cells; also called (rh)AXL-ECD His8; human AXL ECD
T1 sequence: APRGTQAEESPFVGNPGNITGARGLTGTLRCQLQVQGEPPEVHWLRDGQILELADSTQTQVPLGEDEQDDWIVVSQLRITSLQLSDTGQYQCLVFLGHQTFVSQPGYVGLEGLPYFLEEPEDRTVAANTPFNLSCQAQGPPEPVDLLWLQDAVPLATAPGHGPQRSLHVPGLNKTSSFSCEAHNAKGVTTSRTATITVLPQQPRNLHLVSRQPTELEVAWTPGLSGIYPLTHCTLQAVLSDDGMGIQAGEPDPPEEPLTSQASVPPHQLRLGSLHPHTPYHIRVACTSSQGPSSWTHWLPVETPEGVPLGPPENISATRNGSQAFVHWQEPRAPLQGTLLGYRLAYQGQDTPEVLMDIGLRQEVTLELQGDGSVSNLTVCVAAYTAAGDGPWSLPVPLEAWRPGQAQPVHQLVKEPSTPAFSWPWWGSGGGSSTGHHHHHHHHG
Put plainly: SPR, VHH-Fc captured, AXL ECD flowed, single-concentration kinetics (estimate). As for the experimental part: (§1) For VH Hs and VHH-Fcs, binding to human and cynomolgus AXL ECD was assessed using either a Biacore T200 instrument or a Biacore 3000 instrument. Either human AXL ECD or anti-human Fc antibody was immobilized on a research-grade CM5 series S sensor chip (T200, rhAXL ECD) or a C1 sensor chip (3000, anti-human Fc) using amine coupling in acetate buffer. VHH-Fcs were captured on anti-human Fc surfaces. Either monomeric VHHs (for rhAXL ECD surfaces) or human and cyno AXL ECD (for VHH-Fc surfaces) were flowed over the surfaces at different concentration ranges. Running buffers were HBS-EP (3000) and HBS-EP+(T200). Flow rates were 10-40 ul/min. All binding studies were performed at 25° C. Surfaces were regenerated using 10 mM glycine, pH 1.5.

Test [2] deals with T2, human AXL expressed on the cell surface of tumor cell lines (human, UniProt P30530 26-894).
T2 construct: whole, on cells; also called cell surface-expressed AXL; cell-based AXL
T2 sequence (looked up): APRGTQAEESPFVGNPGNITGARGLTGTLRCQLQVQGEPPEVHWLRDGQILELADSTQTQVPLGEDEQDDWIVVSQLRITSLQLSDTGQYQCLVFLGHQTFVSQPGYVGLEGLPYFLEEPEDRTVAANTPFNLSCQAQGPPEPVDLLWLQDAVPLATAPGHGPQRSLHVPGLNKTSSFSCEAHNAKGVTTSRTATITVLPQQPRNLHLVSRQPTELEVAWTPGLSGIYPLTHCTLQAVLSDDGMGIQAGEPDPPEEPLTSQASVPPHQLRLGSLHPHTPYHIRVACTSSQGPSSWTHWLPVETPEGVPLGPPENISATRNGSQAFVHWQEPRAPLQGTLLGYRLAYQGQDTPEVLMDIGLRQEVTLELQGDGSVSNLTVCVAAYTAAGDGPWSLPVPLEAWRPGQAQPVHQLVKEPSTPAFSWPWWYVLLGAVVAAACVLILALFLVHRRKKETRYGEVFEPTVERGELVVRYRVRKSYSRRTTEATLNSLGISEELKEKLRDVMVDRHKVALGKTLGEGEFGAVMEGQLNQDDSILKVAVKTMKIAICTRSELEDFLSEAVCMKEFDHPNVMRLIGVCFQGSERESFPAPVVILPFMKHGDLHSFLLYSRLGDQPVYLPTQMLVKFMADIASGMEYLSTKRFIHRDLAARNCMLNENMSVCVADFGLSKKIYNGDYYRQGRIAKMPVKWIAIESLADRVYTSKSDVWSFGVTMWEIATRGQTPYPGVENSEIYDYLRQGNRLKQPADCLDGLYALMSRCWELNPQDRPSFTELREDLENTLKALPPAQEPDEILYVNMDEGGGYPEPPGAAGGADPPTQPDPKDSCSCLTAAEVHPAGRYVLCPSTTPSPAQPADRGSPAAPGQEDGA
The experiment in a line: FACS on MDA-MB-231 luciferase cells, apparent Kd, human Fc format. As for the experimental part:
(§2) FACS binding assay. Adherent cells were dissociated with non-enzymatic Sigma Cell Dissociation Solution (Cat. No. C5789). Cells suspensions were added to polypropylene, V-bottom 96-well plates and incubated for 2 hours on ice with primary antibodies at concentrations ranging from 100 nM to 0.001 nM or at a single dose of 100 nM (for the non-specific control). After incubation and washes, cells were incubated with fluorescently labeled secondary antibody (Alexa Fluor® 488 anti-human IgG from Jackson Cat. No 709-546-098) for 1 hour on ice, then washed. Cell viability was determined using Fixable viability dye 450 (20 min on ice). Stained cells were fixed in 1% formaldehyde at 4° C. and stored at 4° C. until acquisition which was performed the next day.
(§3) Binding of recombinant chimeric Abs to three cell lines was assessed by FACS as described above. The apparent Bmax and Kd determination is shown below in Table 14.

For test [3], the target named is T2, human AXL expressed on the cell surface …. The experiment in a line: FACS on NCI-H292 cells, apparent Kd, human Fc format. As for the experimental part: as §2, §3
Test [4] concerns the target T1, recombinant human AXL extracellular …. Put plainly: ELISA on coated AXL ECD (100 ng/well), VHH-Fc, HRP-protein A. As for the experimental part: (§4) ELISA. ELISAs against human, cyno and mouse AXL ECDs were conducted by immobilizing 100 ng of each protein in wells of Nunc MaxiSorp microplates overnight. Human AXL (aa 1-451) and cyno AXL (aa 1-449) were produced recombinantly as described in Example 10. Mouse AXL was purchased from Sino (cat. 51026-M08H). The next day, plates were blocked with 5% (w/v) dried milk in PBS. Murine mAbs (either hybridoma- or recombinantly-produced) or VHH-Fcs were diluted in PBS containing 1% BSA and 0.1% Tween-20 and added to wells for 2 hours at room temperature. Wells were washed 5× with PBS containing 0.1% Tween-20, then HRP-labeled protein A (diluted 1:1000 in PBS containing 1% BSA and 0.1% Tween™-20) was added to wells for 1 hour at room temperature. Wells were washed again 5× with PBS/0.1% Tween-20 and developed using TMB substrate. Absorbance was measured at 450 nm. As a positive control for mouse AXL binding, a commercial anti-mouse AXL mAb (clone 175128, R&D Systems MAB8541, rat IgG2A) was used and detected with donkey […] secondary antibody.
For orientation: An ELISA detects its analyte on a solid surface through an enzyme-linked reagent.

The target is the same in test [5]. The experiment in a line: SPR, VHH-Fc captured, AXL ECD flowed, single-cycle kinetics. The protocol:
as §1
(Surface plasmon resonance follows binding to a sensor surface in real time, without labels.)

Test [6] deals with T3, mouse AXL extracellular domain (Sino cat. 51026-M08H) (mouse, UniProt Q00993 19-445).
T3 construct: extracellular domain; Bought protein; also called mouse AXL ECD
T3 sequence (looked up): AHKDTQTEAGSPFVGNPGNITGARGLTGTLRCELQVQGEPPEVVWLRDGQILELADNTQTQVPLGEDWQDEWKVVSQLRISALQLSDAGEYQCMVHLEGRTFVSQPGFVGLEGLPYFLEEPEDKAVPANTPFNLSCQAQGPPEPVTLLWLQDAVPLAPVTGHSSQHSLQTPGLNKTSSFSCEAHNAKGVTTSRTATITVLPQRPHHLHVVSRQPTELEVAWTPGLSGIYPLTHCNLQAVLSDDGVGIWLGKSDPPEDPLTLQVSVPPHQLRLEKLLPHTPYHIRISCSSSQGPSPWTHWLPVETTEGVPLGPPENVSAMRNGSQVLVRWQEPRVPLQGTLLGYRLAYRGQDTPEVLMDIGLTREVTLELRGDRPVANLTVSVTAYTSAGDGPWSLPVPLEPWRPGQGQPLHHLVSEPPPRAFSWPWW
The experiment in a line: ELISA on coated mouse AXL ECD (100 ng/well), VHH-Fc. The protocol:
as §4

Test [7] addresses T2, human AXL expressed on the cell surface …. The experiment in a line: FACS on SKOV3 cells, apparent Kd, human Fc format. As for the experimental part:
as §2, §3

Test [8] shares this target. Put plainly: cell-based or functional assay.
The target is the same in test [9]. The experiment in a line: cell-based or functional assay. The source holds these as a separate data set.
The target of test [10] is T4, huMER-ECD displayed on yeast (human, UniProt Q12866 21-505).
T4 construct: extracellular domain
T4 sequence (looked up): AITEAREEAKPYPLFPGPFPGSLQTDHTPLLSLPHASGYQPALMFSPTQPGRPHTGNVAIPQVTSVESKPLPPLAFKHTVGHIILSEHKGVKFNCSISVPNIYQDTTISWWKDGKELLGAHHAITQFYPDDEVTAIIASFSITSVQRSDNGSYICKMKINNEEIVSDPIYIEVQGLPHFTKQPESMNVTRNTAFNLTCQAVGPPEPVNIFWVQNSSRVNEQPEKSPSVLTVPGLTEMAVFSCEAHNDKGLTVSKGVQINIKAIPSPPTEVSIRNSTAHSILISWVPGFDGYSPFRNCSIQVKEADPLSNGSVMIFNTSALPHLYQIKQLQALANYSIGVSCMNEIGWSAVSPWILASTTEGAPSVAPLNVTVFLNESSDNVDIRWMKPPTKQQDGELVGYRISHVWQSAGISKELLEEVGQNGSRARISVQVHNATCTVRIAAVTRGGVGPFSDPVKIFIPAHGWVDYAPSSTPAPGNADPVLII
Put plainly: yeast surface display ELISA, non-denatured yeast, goat anti-human F(ab')2-HRP.

Test [11] addresses T5, cyAXL-ECD displayed on yeast.
T5 construct: extracellular domain; 'cy' read as cynomolgus
Described as above.

B1: NRC-sdAb008-Fc (VHH-human IgG1 Fc fusion) (Fc fusion)
chain: QVKLEESGGGLVQAGGSLRLSCAASGSSGMINTMGWYRQAPGKQRELVARRSTGGTTNYADSVKGRFTISRDDANNTVYLQMNSLKPEDTAVYYCAIIWRTSDLTGRFNTWGQGTQVTVSS
notes: VHH fused N-terminally to human IgG1 Fc; also called NRC-sdAb008-hIgG1; not shown: human IgG1 Fc
As to B1, the Kd is 2 nM in test [1]; 0.122 nM in test [2]; 0.0414 nM in [3]; 1 nM in test [5]; 0.0549 nM in test [7]. The koff in [1] was 0.0082 s⁻¹; in test [5], 0.0033 s⁻¹. Besides, the kon was 5.3e+06 M⁻¹ s⁻¹ in test [1] and 3.3e+06 M⁻¹ s⁻¹ in test [5]. Moreover, the EC50 in test [4] amounted to 1 nM. The binding result in [6] is listed as “no binding”.

B2: hFc-F111-5E9-DM1 (antibody, human IgG1, kappa, V domains shown)
VH: QIQLVQSGPELKKPGETVKISCKASGYTFTKYGMNWVKQAPGKGLKWMGWINTYTGEPTYADDFKGRFAFSLETSASTAYLQINNLTTEDMVTYFCAKGGYYSNPIYPMDYWGQGTSVTVSS
VL: DIQMTQTTSSLSASLGDRVTISCRASQDINNYLNWYQQKPDGTVKLLIYYISRLHSGVPSRFSGSGSGTDYSLTISNLELEDVATYFCQQGNTLPFTFGSGTKLEIKR
modifications: DM1 through SMCC linker on lysine residues; sites not given
B2: in test [8], the “IC50 (read off the curve), growth inhibition of H292 cells, with added Gas6 (squares)” value is approximately 0.04 nM and the “IC50 (read off the curve), growth inhibition of H292 cells, without added Gas6 (circles)” value is approximately 0.04 nM. In [9], the “IC50 of growth inhibition (CellTiterGlo, 5 days) of NCI-H292 cells, -Gas6” value turned out to be 0.084 nM and the “IC50 of growth inhibition of NCI-H292 cells, +Gas6 (2 µg/mL)” value was found to be 0.074 nM.

B3: hFc-F107-10G1-DM1 (antibody, human IgG1, kappa, V domains shown)
VH: EVNLVESGGGVVKPGASLKLSCEASGFTFSNYGMSWVRQTSDKRLEWVASISGGGGRTYYLDNVKGRFIISRENAKNTLYLQMSSLKSEDTALFYCARGARASYFAMDYWGQGSSVTVSS
VL: VIVMTQSHKFMSTSVGDRVSITCKASQDVTTAVAWYQQKPGQSPKLLIYWASTRHTGVPDRFTGSGSGTDYSLTISNVQTEDLAFYYCQQHFTTPLTFGAGTKLELKR
modifications: DM1 through SMCC linker on lysine residues; sites not given
B3: the “IC50 (read off the curve), growth inhibition of H292 cells, without added Gas6 (circles)” value in test [8] was approximately 0.004 nM. Further, in test [9], the “IC50 of growth inhibition (CellTiterGlo, 5 days) of NCI-H292 cells, -Gas6” value is 0.013 nM and the “IC50 of growth inhibition of NCI-H292 cells, +Gas6 (2 µg/mL)” value amounted to 0.46 nM.

B4: NRC-sdAb002-Fc (VHH-human IgG1 Fc fusion) (Fc fusion)
chain: QVQLVDSGGGLVQAGGSLRLSCATSTRTVSSAVMAWFRQAPEKVRDFVGFITNSGNILYDDSVKGRFTISRDNAQNTVYLQMNSLKPEDTAVYYCAAKWSFSSGYGDLRRAAMYDYWGQGTQVTVSS
notes: VHH fused N-terminally to human IgG1 Fc; also called NRC-sdAb0002-Fc; NRC-sdAb002-hIgG1; not shown: human IgG1 Fc
Turning to B4, the figures for the “yeast ELISA signal normalized to myc expression level” value in test [10] and in test [11] were 0.01 and 0.76, respectively.

As a reminder, the koff is the rate constant with which the complex falls apart. One may read the kon as a measure of how fast the partners come together. By EC50 is commonly meant the midpoint of the concentration-response curve.

The values are drawn from patent publication US20240076389A1 (NATIONAL RESEARCH COUNCIL OF CANADA, published 2024).
